Experimental data: a protein production outcome set (Wang et al. 2014)

assay: label from the status in PepcDB records

Q: For “MLFSASLIHRIEFAPQRELYFLALYRILEAGLIAALVFSPVSLLVDPESDPHLGTVVAVGYLLLATILLVWGRNERWFTPLVFGSTVADILAATLAIHALPKASAGIAMMLLFNVAAAAILLRLRFSMILAWIAGVAMLVEYIWTVLSEGDSSRSLAELLMFFTSYTAVAYMCHQAAQRARYSQALAEKRRAQIVNLAEINELIIRRMRTGVLVVDAANRIGLSNETAAALLGYDRQLVESDYDLATVAPELIMRLKCWRIGRHYEDTPLRLAPDQPEVQPRFVSLLADSGLTLIFLDDVSVVSRRAESLTLLALGRFSASLAHEIRNPLAAIKHASQLLEESSNLDKGDQRLLDIILKQCQRTNGIVESVLGLARRERANPENLDLVGFVSRFVDEYRQTLSSEYDNLEIQTLHSTVQALVDPRHLYQILAVLTHNALRYGRFPDTPAQVRIEVVYTGGSVGINVLDQGPGIPDAAVLQLFQPFFTTSDHGTGLGLYIARELCNANQSNLEYVAIPGGGACFRITLPGPYALIPN”, which protein production is on record?
A: The protein production was “failed”.

Q: Which protein production does the source give for “MLGLFLIFWGLLLLLSLATFDLRDPSLNHVVSNPTEIRNGAGMFGSYLGGMLADAFGIAAFLWPVGFIGLGARYIIVSFDIAWWRWAGLLALSLCMVTAGAAWELSLGDVNAGGVLGDLLYRFSWKALSPRGSTLVWLFLCIIGLQLTFDISWTALFRRIVDKVRADLEAHPVSRPQLPELKLPRLGLPSGLHLPGRKGAEGNAPATLAVVDVTPDGSDSTNGAPSVVAREASTPRGMPVETDDFVLSEDRLQPPASELPFEVVLDADTDGVADLTADVESDISEGAGRPKAKMRRKSQLPPLDLLHSALNEDSRPDREVLEGKGLSLTNCLSDFGVQGELTRITPGPVVTMFEFRPAPGVKVSRIANLSDDLALALKAIAVRIQAPIPGTDTVGIEIPNETRETVCFKELLSSDTFKGASSLLTLAIGKDIAGRPTVADLSKMPHLLVAGATGAGKSVCLNSILLSILYKARPEDVKLLLVDPKRIELAVYADLPHLVHPVVTEMAHAKNALDWAVHEMDKRYEGMARLGVRNIAGYNQKLEDMGKERPADLADLEAMPYLVIIIDELADLMLTAAKEVETSIVRLAQLARAAGIHLILATQRPSVDVVTGLIKANFPCRISFQVTSKHDSRTILDTVGAEFLLGKGDMLFKPSGGKLQRLHGAFVSDDDVNGVVAFWKKQQPPSYKVDFAEWGNEGTLDGNGGSGGAGDLADDPVYAEAVEFVMGQGRASISLIQRRFRIGFNRAARYVEQMEQDGIIGPADGSKPRSVIRGKE” here?
A: The protein production was “failed”.

Q: Which protein production does the source give for “MLGLKTSIIGRRVIYFQEITSTNEFAKTSYLEEGTVIVADKQTMGHGRLNRKWESPEGGLWLSIVLSPKVPQKDLPKIVFLGAVGVVETLKEFSIDGRIKWPNDVLVNYKKIAGVLVEGKGDKIVLGIGLNVNNKVPNGATSMKLELGSEVPLLSVFRSLITNLDRLYLNFLKNPMDILNLVRDNMILGVRVKILGDGSFEGIAEDIDDFGRLIIRLDSGEVKKVIYGDVSLRFL” here?
A: Its protein production is “not failed”.

Q: Which protein production does the source give for “MLGLLRRLFDNNEREIARYYKQVVEPVNRLEAEVEKLPDLAAAYRELKEKHEKGASLDELLPMAFALTRESAKRYLGMRHFDVQLIGGAVLHEGKIAEMKTGEGKTLVATLAVALNALTGKGVHVVTVNDYLARRDAEWMGPVYRGLGLSVGVIQHASTPAERRKAYLADVTYVTNSELGFDYLRDNMAISPDQLVLRHDHPLHYAIIDEVDSILIDEARTPLIISGPAEKATDLYYKMAEIAKKLERGLPAEPGVRKEPTGDYTVEEKNRSVHLTLQGIAKAEKLLGIEGLFSPENMELAHMLIQAIRAKELYHRDRDYIVQDGQVIIVDEFTGRLMPGRRYGEGLHQAIEAKEGVRIERENQTLATITYQNFFRLYEKRAGMTGTAKTEEKEFQEIYGMDVVVVPTNRPVIRKDFPDVVYRTEKGKFYAVVEEIAEKYERGQPVLVGTISIEKSERLSQMLKEPRLYLPRLEMRLELFKKASQKQQGPEWERLRKLLERPAQLKDEDLAPFEGLIPPKGNLRTAWEGLKRAVHTLAVLRQGIPHQVLNAKHHAREAEIVAQAGRSKTVTIATNMAGRGTDIKLGGNPEYLAAALLEKEGFDRYEWKVELFIKKMVAGKEEEARALAQELGIREELLERIREIREECKQDEERVRALGGLFIIGTERHESRRIDNQLRGRAGRQGDPGGSRFYVSFDDDLMRLFASDRVIAMLDRMGFDDSEPIEHPMVTRSIERAQKRVEDRNFAIRKQLLQFDDVLSRQREVIYAQRRLILLGKDEEVKEAAIGMVEETVASLAENFLNPEVHPEDWDLEGLKATLLDTAPQLQDFPFAELRALKAEEAVERLVEAALKAYEAREAELSPPLMRAVERFVILNVVDNAWKEHLHNLDVLRQGIFLRGYGQKDPFQEYKIEATRLFNEMVAFIKSEVAKFLFRLKVEAEPVRPVREAPYVPVPEAKPEPSEVFGVERKRATPPPQPGLSRAERRRLMRQEKKRKK” here?
A: The protein production was “not failed”.

Q: Which protein production does the source give for “MLGMGVFKQLIKGLYEWLLHSIDVATQHLVAIVLKISVVKYLIKEFHDRFIYFIDLIAQHFIIVALSSFLVLVFGVLIGVLVFYNSKARAFLLPVVNFLYTIPSLALFALFIPVIGVGLKNALLVLVLYGLLPIVHSTYNALKEVREEVIKAAIGLGCNPKELFFKVRFLLAIPQILAGLRIAVVMLVAMAGIGALIGAGGLGQAIFRGLNTQNTTLLVAGSLIIALFSVLADKFVSVFQHENALQRLFSQNATKKQKRRVYTNLAVFLFLLLASALWLIPRNAIEEKPLVVATKPSSEQYILGEILSLLLEKHHIPIKRAFGIGGGTMNIHPALIRGDFDLYVEYTGTAWVNTLKNPLTQKVDFETIKKRYEKEFNLLWVGLLGFNNTYSLAISKEDAQKYAIETFSDLAFHSPNFDFGAEFDFFEREDAFKGLVKAYRFHFRSLHEMDINLRYKSFESHKINALDVFTTDAQIKELDLKVLKDDKGFFPNYQAGIVIRKEIVKKYPEALEILEKLDSKISDEKMQDLNYQVEVLKKSPQIVAKDFLERLGL” here?
A: Its protein production is “failed”.

Q: Which protein production does the source give for “MLGRAFQDLNRLRQISAAMARHGFGAYLERMRLRDVLGRDAPPPGQPLPPPDRTTAARFRTMLGELGPTFIKLGQLLSSRPDVLPSHWVDELEKLQDACPPVGVAEIREEIERGLGRPVEALFAALDPVPLASASIAQVHRATTHEGVQVVVKVQRPRIREQIESDLALLHDLAGLLEAVVEETGIYTPTGVMEEFDRTIHEELDFSNEARNATAMYETSAGREFLVIPRVHKALSCDTVLTLDYVEGVKVSDVTAEAGFDLEQVARNVIEASFRQLFEDGLFHGDPHPGNILVLPGNRIALLDFGLVGRLSRVQQEALVTLIVAVALRDPETVARVLNRIGVPDARAPITEFREDIRVILDRYLGLRLDEIRSATLLRDLLDLAIRHRIRIPKEYAVLAKASVTIEGIIRRLYPKLDILEVGLPYAKELLLSRFNPSDASGLVMRALLKLQGLAEDVPTQLSQILVDLEGGKFRVNVASDAIDRIGGHVRALGVLLFLGLLAAGLTVGGLVVLAGGEGLLGGLALGAAALLCAFAAAYHLATLRMRKISLRRWLKR” here?
A: Its protein production is “failed”.

Q: With “MLGYVWLVEGRELMRWQELCTPAVICVGGVDPSAGAGITADVRTAENMGVRAYTVATAITFQGSGSYRGERWVDSADIIRQIESLSAEMEPAVAKIGLIRDSDTLSLVVDCLKKVFPSIRIVWDPVLRASADSSAGQADRFNLEDITALSRIDFITPNLPEARHLLGCEPDDETLLDFYRRSGVGLVLKGGHAGESVVTDRIVYDGRCEALRLLRGGTGKHGTGCAHSTAFAAALALEQEPFTAAGMAQLYVSRLRERASGLLAMHKDLPVDPVVRLMSEIDLQFITHRQPDLSELEEAEAVCRIGVRWVQLRMKEASDEEMLHTACAVKAVCRHHGALFVVNDRVEIARQVDADGVHLGKEDMAIVEARRILGSNKIIGRTCNTMEDVRRAYAEGADYVGIGPYRYTETKQRLAPVLGLEGYKAIAACMQAEGIRLPAFAIGGIEDADIPLIRDCGIGGIAVSGSLIRKIKKNLEHHHHHH” as the sequence, how does the protein production read?
A: Its protein production is “failed”.

Q: For “MLHIDDAMIEDAVTPQAAQEVLHAAFLDFGRGSAAMQRRVRTEAGGVKLSTLGAVIPGQGVAGAKVYTTIKGQFQFVILLFSAADGRPLATCDAGTLTRKRTAACTVLAAGALARPRSSVLGLFGAGTQGAEHAAQLSARFALEAILVHDPYASPEILERIGRRCGVPARMAAPADIAAQADIVVTATRSTTPLFAGQALRAGAFVGAIGSSLPHTRELDDEALRRARAVVVEWREQTLSEAGDLVLAAPDTGLDAKVVELADVLAGRAAARQADEDIVIYKSVGVGLEDVALAGYAYRRLAAQRGWPAP”, which protein production is on record?
A: Its protein production is “not failed”.
